Experimental data taken from the supplement of paper PMC9112550, “Optimization of the antimicrobial peptide Bac7 by deep mutational scanning” (BMC Biology, 2022).
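Note: peptides expressed intracellularly from a pBAD plasmid library in pooled LB shake-flask culture, induced with 0.3% L-arabinose, DNA abundance read by NGS, three biological replicates, DESeq2 with apeglm shrinkage.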

What follows are sequences tested on Escherichia coli TOP10 (assay: shrunken log2 fold change of peptide-encoding DNA abundance (4.5 h post-induction vs induction); higher = less antimicrobial activity (less host growth inhibition)). Details: time post-induction: 4.5 h; library: site-saturation at positions 5, 18, 19, 20.
RRIRVRPPRLPRPRPRPFLIPRP was tested, and the “shrunken log2 fold change” value was -0.777.
In the case of RRIRGRPPRLPRPRPRPYNCPRP, the “shrunken log2 fold change” value is reported as -0.0269.
For RRIRNRPPRLPRPRPRPWYAPRP, the “shrunken log2 fold change” value was -0.533.
For RRIRDRPPRLPRPRPRPNYVPRP, the “shrunken log2 fold change” value was -0.147.
With RRIRKRPPRLPRPRPRPDQIPRP the “shrunken log2 fold change” value was -0.0414.
In the case of RRIRQRPPRLPRPRPRPKMRPRP, the “shrunken log2 fold change” value is reported as 0.0141.
RRIRCRPPRLPRPRPRPQWSPRP was tested, and the “shrunken log2 fold change” value was -0.169.
RRIRIRPPRLPRPRPRPCSMPRP was tested, and the “shrunken log2 fold change” value was -0.00947.
RRIRPRPPRLPRPRPRPQVWPRP was tested, and the “shrunken log2 fold change” value was 0.202.
With RRIRVRPPRLPRPRPRPNQLPRP the “shrunken log2 fold change” value was -0.188.
RRIRERPPRLPRPRPRPEIFPRP was tested, and the “shrunken log2 fold change” value was -0.00264.
RRIRQRPPRLPRPRPRPVIVPRP was tested, and the “shrunken log2 fold change” value was -0.0674.
With RRIRYRPPRLPRPRPRPAWYPRP the “shrunken log2 fold change” value was -0.687.
For RRIRVRPPRLPRPRPRPTGRPRP, the “shrunken log2 fold change” value was 0.274.
For RRIRQRPPRLPRPRPRPYIAPRP, the “shrunken log2 fold change” value was 0.0259.
In the case of RRIRNRPPRLPRPRPRPPQMPRP, the “shrunken log2 fold change” value is reported as 0.234.
With RRIRDRPPRLPRPRPRPRMCPRP the “shrunken log2 fold change” value was 0.0171.
For RRIRSRPPRLPRPRPRPCLTPRP, the “shrunken log2 fold change” value was -0.293.
In the case of RRIRWRPPRLPRPRPRPLSAPRP, the “shrunken log2 fold change” value is reported as 0.553.
With RRIRTRPPRLPRPRPRPDQIPRP the “shrunken log2 fold change” value was -0.0138.
In the case of RRIRGRPPRLPRPRPRPGMGPRP, the “shrunken log2 fold change” value is reported as 0.963.
RRIRERPPRLPRPRPRPFSPPRP was tested, and the “shrunken log2 fold change” value was -0.745.
For RRIRTRPPRLPRPRPRPLFIPRP, the “shrunken log2 fold change” value was -0.746.
In the case of RRIRRRPPRLPRPRPRPCHHPRP, the “shrunken log2 fold change” value is reported as -0.0387.
With RRIRARPPRLPRPRPRPCYYPRP the “shrunken log2 fold change” value was -0.508.
RRIRMRPPRLPRPRPRPYRHPRP was tested, and the “shrunken log2 fold change” value was 0.0311.
With RRIRHRPPRLPRPRPRPSLLPRP the “shrunken log2 fold change” value was -0.287.
RRIRHRPPRLPRPRPRPYKHPRP was tested, and the “shrunken log2 fold change” value was -0.512.
With RRIRKRPPRLPRPRPRPTCFPRP the “shrunken log2 fold change” value was 0.259.
In the case of RRIRERPPRLPRPRPRPWVMPRP, the “shrunken log2 fold change” value is reported as -0.32.
RRIRCRPPRLPRPRPRPWPWPRP was tested, and the “shrunken log2 fold change” value was 0.0405.
RRIRYRPPRLPRPRPRPNTVPRP was tested, and the “shrunken log2 fold change” value was -0.301.
RRIRQRPPRLPRPRPRPMMFPRP was tested, and the “shrunken log2 fold change” value was -0.3.
RRIRPRPPRLPRPRPRPHNIPRP was tested, and the “shrunken log2 fold change” value was -0.546.
With RRIRIRPPRLPRPRPRPVVHPRP the “shrunken log2 fold change” value was -0.000671.
For RRIRYRPPRLPRPRPRPKTQPRP, the “shrunken log2 fold change” value was 0.0853.
For RRIRRRPPRLPRPRPRPCLWPRP, the “shrunken log2 fold change” value was 0.407.
In the case of RRIRFRPPRLPRPRPRPLSDPRP, the “shrunken log2 fold change” value is reported as 0.207.
RRIRWRPPRLPRPRPRPYEEPRP was tested, and the “shrunken log2 fold change” value was -0.334.
With RRIRWRPPRLPRPRPRPLCKPRP the “shrunken log2 fold change” value was 0.116.
For RRIRYRPPRLPRPRPRPCLDPRP, the “shrunken log2 fold change” value was -0.125.
With RRIRCRPPRLPRPRPRPANDPRP the “shrunken log2 fold change” value was -0.799.
With RRIRPRPPRLPRPRPRPNIMPRP the “shrunken log2 fold change” value was -0.694.
In the case of RRIRMRPPRLPRPRPRPDEPPRP, the “shrunken log2 fold change” value is reported as 2.72.
In the case of RRIRGRPPRLPRPRPRPHMSPRP, the “shrunken log2 fold change” value is reported as 1.32.
In the case of RRIRCRPPRLPRPRPRPYARPRP, the “shrunken log2 fold change” value is reported as -0.746.
RRIRDRPPRLPRPRPRPERQPRP was tested, and the “shrunken log2 fold change” value was -0.00783.
In the case of RRIRQRPPRLPRPRPRPDFEPRP, the “shrunken log2 fold change” value is reported as 0.0209.
In the case of RRIRPRPPRLPRPRPRPADEPRP, the “shrunken log2 fold change” value is reported as 0.0954.
With RRIRYRPPRLPRPRPRPCKRPRP the “shrunken log2 fold change” value was -0.0961.
For RRIRYRPPRLPRPRPRPDDSPRP, the “shrunken log2 fold change” value was 0.00262.
RRIRHRPPRLPRPRPRPKSNPRP was tested, and the “shrunken log2 fold change” value was -0.216.
With RRIRKRPPRLPRPRPRPAGDPRP the “shrunken log2 fold change” value was 0.646.
With RRIRIRPPRLPRPRPRPDCFPRP the “shrunken log2 fold change” value was -0.211.
For RRIRFRPPRLPRPRPRPWRLPRP, the “shrunken log2 fold change” value was -0.799.
With RRIRIRPPRLPRPRPRPWVEPRP the “shrunken log2 fold change” value was -0.211.
RRIRNRPPRLPRPRPRPQKGPRP was tested, and the “shrunken log2 fold change” value was 0.0289.
RRIRVRPPRLPRPRPRPRCYPRP was tested, and the “shrunken log2 fold change” value was -0.31.
With RRIRSRPPRLPRPRPRPEKQPRP the “shrunken log2 fold change” value was 0.1.
RRIRRRPPRLPRPRPRPMIWPRP was tested, and the “shrunken log2 fold change” value was 0.0834.
In the case of RRIRIRPPRLPRPRPRPDWQPRP, the “shrunken log2 fold change” value is reported as -0.00422.
In the case of RRIRQRPPRLPRPRPRPTEAPRP, the “shrunken log2 fold change” value is reported as -0.0735.
With RRIRQRPPRLPRPRPRPDCSPRP the “shrunken log2 fold change” value was 0.0489.
In the case of RRIRTRPPRLPRPRPRPQIPPRP, the “shrunken log2 fold change” value is reported as -0.235.
With RRIRSRPPRLPRPRPRPGMKPRP the “shrunken log2 fold change” value was -0.0636.
With RRIRERPPRLPRPRPRPFRPPRP the “shrunken log2 fold change” value was -0.179.
For RRIRERPPRLPRPRPRPILVPRP, the “shrunken log2 fold change” value was 0.028.
RRIRERPPRLPRPRPRPPVSPRP was tested, and the “shrunken log2 fold change” value was 0.0232.
In the case of RRIRKRPPRLPRPRPRPGCVPRP, the “shrunken log2 fold change” value is reported as 1.16.
For RRIRRRPPRLPRPRPRPGQYPRP, the “shrunken log2 fold change” value was -0.16.
RRIRCRPPRLPRPRPRPHAWPRP was tested, and the “shrunken log2 fold change” value was -0.245.
For RRIRMRPPRLPRPRPRPRKWPRP, the “shrunken log2 fold change” value was 0.363.
In the case of RRIRKRPPRLPRPRPRPLSFPRP, the “shrunken log2 fold change” value is reported as -0.191.
RRIRARPPRLPRPRPRPINHPRP was tested, and the “shrunken log2 fold change” value was -0.376.
For RRIRNRPPRLPRPRPRPKLWPRP, the “shrunken log2 fold change” value was -0.0235.
